The experiment has as its target T1, Strep-PRP5 (human, UniProt Q7L014 1-1031).
T1 sequence: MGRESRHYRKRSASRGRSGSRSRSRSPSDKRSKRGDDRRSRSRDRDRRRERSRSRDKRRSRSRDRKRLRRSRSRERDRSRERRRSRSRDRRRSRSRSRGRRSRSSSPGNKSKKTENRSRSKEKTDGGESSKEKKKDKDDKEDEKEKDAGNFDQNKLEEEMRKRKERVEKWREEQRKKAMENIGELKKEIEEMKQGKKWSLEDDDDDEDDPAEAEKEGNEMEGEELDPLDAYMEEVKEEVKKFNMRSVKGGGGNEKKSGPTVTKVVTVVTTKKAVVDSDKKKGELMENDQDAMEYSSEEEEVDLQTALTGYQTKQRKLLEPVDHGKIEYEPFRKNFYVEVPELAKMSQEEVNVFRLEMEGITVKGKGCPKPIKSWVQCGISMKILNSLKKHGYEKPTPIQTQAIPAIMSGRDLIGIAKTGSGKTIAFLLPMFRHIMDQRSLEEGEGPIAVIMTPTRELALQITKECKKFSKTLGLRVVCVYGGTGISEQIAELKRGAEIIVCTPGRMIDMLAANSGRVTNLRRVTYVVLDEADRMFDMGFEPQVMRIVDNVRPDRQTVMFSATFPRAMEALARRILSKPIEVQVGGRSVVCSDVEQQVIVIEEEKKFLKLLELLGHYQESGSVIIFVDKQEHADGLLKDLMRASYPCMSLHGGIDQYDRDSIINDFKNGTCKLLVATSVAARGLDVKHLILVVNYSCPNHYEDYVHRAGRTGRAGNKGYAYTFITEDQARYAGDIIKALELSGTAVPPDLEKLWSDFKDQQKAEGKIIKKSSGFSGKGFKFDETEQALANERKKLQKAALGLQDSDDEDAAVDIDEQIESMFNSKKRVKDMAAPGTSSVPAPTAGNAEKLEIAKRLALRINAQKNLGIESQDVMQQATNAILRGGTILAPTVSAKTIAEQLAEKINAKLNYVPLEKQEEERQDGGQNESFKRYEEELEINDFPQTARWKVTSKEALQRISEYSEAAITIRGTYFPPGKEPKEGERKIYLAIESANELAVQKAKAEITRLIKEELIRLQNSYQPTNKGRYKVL
Description: pull-down.

B1: Flag-tagged SF3B1 K700E (natural protein, human, UniProt O75533 1-1304, looked up)
chain: MAKIAKTHEDIEAQIREIQGKKAALDEAQGVGLDSTGYYDQEIYGGSDSRFAGYVTSIAATELEDDDDDYSSSTSLLGQKKPGYHAPVALLNDIPQSTEQYDPFAEHRPPKIADREDEYKKHRRTMIISPERLDPFADGGKTPDPKMNARTYMDVMREQHLTKEEREIRQQLAEKAKAGELKVVNGAAASQPPSKRKRRWDQTADQTPGATPKKLSSWDQAETPGHTPSLRWDETPGRAKGSETPGATPGSKIWDPTPSHTPAGAATPGRGDTPGHATPGHGGATSSARKNRWDETPKTERDTPGHGSGWAETPRTDRGGDSIGETPTPGASKRKSRWDETPASQMGGSTPVLTPGKTPIGTPAMNMATPTPGHIMSMTPEQLQAWRWEREIDERNRPLSDEELDAMFPEGYKVLPPPAGYVPIRTPARKLTATPTPLGGMTGFHMQTEDRTMKSVNDQPSGNLPFLKPDDIQYFDKLLVDVDESTLSPEEQKERKIMKLLLKIKNGTPPMRKAALRQITDKAREFGAGPLFNQILPLLMSPTLEDQERHLLVKVIDRILYKLDDLVRPYVHKILVVIEPLLIDEDYYARVEGREIISNLAKAAGLATMISTMRPDIDNMDEYVRNTTARAFAVVASALGIPSLLPFLKAVCKSKKSWQARHTGIKIVQQIAILMGCAILPHLRSLVEIIEHGLVDEQQEVRTISALAIAALAEAATPYGIESFDSVLKPLWKGIRQHRGKGLAAFLKAIGYLIPLMDAEYANYYTREVMLILIREFQSPDEEMKKIVLKVVKQCCGTDGVEANYIKTEILPPFFKHFWQHRMALDRRNYRQLVDTTVELANKVGAAEIISRIVDDLKDEAEQYRKMVMETIEKIMGNLGAADIDHKLEEQLIDGILYAFQEQTTEDSVMLNGFGTVVNALGKRVKPYLPQICGTVLWRLNNKSAKVRQQAADLISRTAVVMKTCQEEKLMGHLGVVLYEYLGEEYPEVLGSILGALKAIVNVIGMHKMTPPIKDLLPRLTPILKNRHEKVQENCIDLVGRIADRGAEYVSAREWMRICFELLELLKAHKKAIRRATVNTFGYIAKAIGPHDVLATLLNNLKVQERQNRVCTTVAIAIVAETCSPFTVLPALMNEYRVPELNVQNGVLKSLSFLFEYIGEMGKDYIYAVTPLLEDALMDRDLVHRQTASAVVQHMSLGVYGFGCEDSLNHLLNYVWPNVFETSPHVIQAVMGALEGLRVAIGPCRMLQYCLQGLFHPARKVRDVYWKIYNSIYIGSQDALIAHYPRIYNDDKNTYIRYELDYIL
In the case of B1, the “relative binding ratio (pulldown over input, normalised to WT)” value is 64 percent.

Source of the values: article doi:10.1101/2022.11.07.515429 (bioRxiv, 2022).
